{"source": "paper PMC3653069", "biological_target": "MutSα (MSH2 subunit);MutSα (MSH6 subunit) (human;human, UniProt P43246;P52701 1-934;1-1360, |)", "test": "EMSA", "data": [{"binder": "rC/G (dsDNA, single ribocytidine at position 13 of strand 1 (rC opposite G)) DNA 1: CCAGACGTCTGTCGACGTTGGGAAGCTTGAG DNA 2: CTCAAGCTTCCCAACGTCGACAGACGTCTGG", "values": [{"measurement": "binding result", "result": "no binding"}]}]}
